Positions count from the first letter of the chain named. Numbers in names are those of the source.

12 molecules from patent US20180244758A1 can be followed below.

B1: mAb PE-87 (antibody, V domains shown)
VH: QVQLVQSGVTLVQPGGSLRVSCAASGFTFSSYAMSWVRQAPGKGLEWVSAISGLGGSTYYADSVKGRFTISRDNSKNTLYLQMNSLRAEDTAVYYCAKDHRVWAAGYHFDYWGQGALVTVSS
VL: DIVLTQSPSTLSASVGDRVTITCRASQSISSWLAWYQQKPGEAPKLLISDASSLESGVPSRFSGSGSGTEFTLTISSLQPDDFATYYCQQYYSSPTFGGGTKVEIK
B2: PE-87 Y107A (antibody, V domains shown)
VH: B1 VH with Y107A
VL: B1 VL
B3: PE-87 G106A (antibody, V domains shown)
VH: B1 VH with G106A
VL: B1 VL
B4: PE-87 H100A (antibody, V domains shown)
VH: B1 VH with H100A
VL: B1 VL
B5: PE-87 Y111A (antibody, V domains shown)
VH: B1 VH with Y111A
VL: B1 VL
B6: PE-87 F109A (antibody, V domains shown)
VH: B1 VH with F109A
VL: B1 VL
B7: PE-87 D99A (antibody, V domains shown)
VH: B1 VH with D99A
VL: B1 VL
B8: PE-87 V102A (antibody, V domains shown)
VH: B1 VH with V102A
VL: B1 VL
B9: PE-87 H108A (antibody, V domains shown)
VH: B1 VH with H108A
VL: B1 VL
B10: PE-87 D110A (antibody, V domains shown)
VH: B1 VH with D110A
VL: B1 VL
B11: PE-87 R101A (antibody, V domains shown)
VH: B1 VH with R101A
VL: B1 VL
B12: PE-87 W103A (antibody, V domains shown)
VH: B1 VH with W103A
VL: B1 VL

EBOV GP[change] (Ebola virus), sequence (Q05320 33-501, chain 1 of 2): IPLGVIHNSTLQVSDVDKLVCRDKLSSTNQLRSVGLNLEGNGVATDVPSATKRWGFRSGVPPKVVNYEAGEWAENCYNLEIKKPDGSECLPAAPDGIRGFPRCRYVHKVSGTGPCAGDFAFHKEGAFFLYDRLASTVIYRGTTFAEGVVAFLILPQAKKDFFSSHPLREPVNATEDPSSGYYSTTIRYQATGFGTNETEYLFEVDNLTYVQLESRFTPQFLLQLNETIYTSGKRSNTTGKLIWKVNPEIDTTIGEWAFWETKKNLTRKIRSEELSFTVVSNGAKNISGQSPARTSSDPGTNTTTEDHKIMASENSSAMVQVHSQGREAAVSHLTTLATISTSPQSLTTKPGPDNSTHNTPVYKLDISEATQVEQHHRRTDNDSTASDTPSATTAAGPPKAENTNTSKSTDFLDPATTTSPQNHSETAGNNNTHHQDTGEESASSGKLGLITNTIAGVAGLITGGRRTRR
EBOV GP[change] (Ebola virus), sequence (Q05320 502-650, chain 2 of 2): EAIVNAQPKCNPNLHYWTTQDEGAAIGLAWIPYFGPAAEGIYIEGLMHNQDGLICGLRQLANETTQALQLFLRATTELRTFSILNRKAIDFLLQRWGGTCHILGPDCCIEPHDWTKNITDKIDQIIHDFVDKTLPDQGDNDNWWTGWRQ

The experiment concerns the target EBOV GP[change] (Ebola virus) (UniProt Q05320).
A word on the Kd: it is the free concentration of one partner at which half of the binding sites on the other are occupied at equilibrium, for simple one-to-one binding. Low values mean a tighter complex, high ones a looser complex. B1 displayed a Kd of under 0.001 nM.
The molecule B2 came in with an equilibrium dissociation constant (Kd) of 30 nM.
For the molecule B3, the Kd came to 0.03 nM.
Take B4: the dissociation constant Kd is 4.5 nM.
For the molecule B5, the Kd was 5.9 nM.
The molecule B6 registered a Kd of 37 nM.
B7 yielded a Kd of 74 nM.
B8 displayed a Kd of 4 nM.
In turn, B9 displayed a Kd of 18 nM.
B10 gave a Kd of 1.3 nM.
For B11, the Kd came out at 9.4 nM.
The molecule B12 displayed a Kd of 1.3 nM.
